Each block holds one binder with its values, some of them ahead of it.
Experiments:
Human ROBO2 Ig1-Ig2-His [1] = target: T1, Human ROBO2 Ig1-Ig2-His (human, UniProt Q9HCK4 31-220); experiment: Octet (BLI)
T1 construct: the His tag is named only in the SPR paragraphs; the Octet and ELISA paragraphs print 'ROBO2 Ig1-Ig2' without a tag; also called ROBO2 Ig1-2; Human ROBO2 Ig 1,2
T1 sequence: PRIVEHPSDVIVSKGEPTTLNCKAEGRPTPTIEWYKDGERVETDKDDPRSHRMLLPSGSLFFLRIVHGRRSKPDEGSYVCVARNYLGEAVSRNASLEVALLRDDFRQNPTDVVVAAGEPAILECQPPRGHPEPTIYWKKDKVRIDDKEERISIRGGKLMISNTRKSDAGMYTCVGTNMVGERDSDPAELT

[2] = target: T2, Human ROBO1 RSK mutant overexpressed on HEK293 cells (human, UniProt Q9Y6N7 26-1651); experiment: flow cytometry, Geo MFI ROBO1-RSK/ROBO2-KSR HEK293 cells, 0.1 µg/ml
T2 construct: K137R and R139K already in the entry; also called ROBO1-RSK cells
T2 sequence (Q9Y6N7 other isoform, or with tags, fused parts or gaps mutant limits assumed): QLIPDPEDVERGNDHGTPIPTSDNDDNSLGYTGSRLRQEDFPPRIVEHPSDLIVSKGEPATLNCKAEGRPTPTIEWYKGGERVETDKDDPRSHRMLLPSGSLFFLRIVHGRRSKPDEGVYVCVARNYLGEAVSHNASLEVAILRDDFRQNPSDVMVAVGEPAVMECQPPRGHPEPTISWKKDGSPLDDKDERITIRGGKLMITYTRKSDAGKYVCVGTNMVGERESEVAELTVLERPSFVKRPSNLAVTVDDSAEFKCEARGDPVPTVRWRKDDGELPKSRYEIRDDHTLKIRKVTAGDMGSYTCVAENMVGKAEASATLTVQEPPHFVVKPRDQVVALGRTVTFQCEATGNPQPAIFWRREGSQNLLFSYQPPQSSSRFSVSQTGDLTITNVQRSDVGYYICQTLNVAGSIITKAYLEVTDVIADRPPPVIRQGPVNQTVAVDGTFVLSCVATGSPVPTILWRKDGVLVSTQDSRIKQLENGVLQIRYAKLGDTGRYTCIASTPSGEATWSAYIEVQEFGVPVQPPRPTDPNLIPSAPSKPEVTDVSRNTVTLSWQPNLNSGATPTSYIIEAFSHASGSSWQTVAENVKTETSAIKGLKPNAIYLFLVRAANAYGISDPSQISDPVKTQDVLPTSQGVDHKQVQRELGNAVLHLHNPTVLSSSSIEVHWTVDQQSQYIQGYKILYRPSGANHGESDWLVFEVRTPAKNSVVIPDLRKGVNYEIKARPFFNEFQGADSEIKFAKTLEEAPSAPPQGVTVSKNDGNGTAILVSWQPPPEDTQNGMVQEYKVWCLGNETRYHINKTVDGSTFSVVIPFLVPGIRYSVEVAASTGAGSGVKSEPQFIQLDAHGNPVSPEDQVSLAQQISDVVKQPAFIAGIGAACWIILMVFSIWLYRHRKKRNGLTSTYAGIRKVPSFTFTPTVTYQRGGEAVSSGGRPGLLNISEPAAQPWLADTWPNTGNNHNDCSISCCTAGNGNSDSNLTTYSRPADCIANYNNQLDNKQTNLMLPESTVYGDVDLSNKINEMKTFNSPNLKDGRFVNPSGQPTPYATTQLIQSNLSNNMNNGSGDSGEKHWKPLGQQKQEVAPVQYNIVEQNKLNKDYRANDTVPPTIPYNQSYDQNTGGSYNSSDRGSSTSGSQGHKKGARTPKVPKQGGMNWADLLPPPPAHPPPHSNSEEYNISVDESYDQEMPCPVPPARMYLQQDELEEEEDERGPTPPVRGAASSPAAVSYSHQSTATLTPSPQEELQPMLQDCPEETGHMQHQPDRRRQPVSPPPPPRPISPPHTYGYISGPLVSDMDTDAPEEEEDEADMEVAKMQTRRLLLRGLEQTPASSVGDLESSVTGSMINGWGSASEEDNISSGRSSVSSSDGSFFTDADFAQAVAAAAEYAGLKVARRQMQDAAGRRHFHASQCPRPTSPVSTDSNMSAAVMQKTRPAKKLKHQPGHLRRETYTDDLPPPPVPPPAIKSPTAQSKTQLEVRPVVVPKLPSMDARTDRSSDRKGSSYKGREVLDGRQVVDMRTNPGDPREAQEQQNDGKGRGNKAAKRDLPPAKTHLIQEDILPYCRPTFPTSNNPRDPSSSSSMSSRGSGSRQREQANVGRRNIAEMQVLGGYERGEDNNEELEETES

Human ROBO2 Ig1-Ig2-His [3] = target: T1, Human ROBO2 Ig1-Ig2-His; experiment: SPR, Biacore T200, Abcs35 immobilized on CM5 chip, ROBO2 Ig1-Ig2-His as analyte
Procedure: […] Association and dissociation were followed over time.
Based upon several criteria, Abcs25 and Abcs35 were selected for further characterization. Using flow cytometry, improvement in the binding EC₅₀ to human ROBO2 relative to the parental 93H2 was evaluated. Starting at 6.7 nM, 11-point, 3-fold dilution series were made for each antibody and used to stain HEK293 overexpressing human ROBO2 as described above for the ROBO2 fold selectivity (Example 2). […] In addition to measuring improved binding to human ROBO2, it was important to ensure that high affinity binding to both cynomolgus monkey ROBO2 and rat ROBO2 was maintained. Using HEK293 cells overexpressing either cynomolgus monkey ROBO2 or rat ROBO2, the relative dose-dependent binding of 93H2, Abcs25 and Abcs35 was evaluated as described above. High affinity binding to both cynomolgus monkey and rat ROBO2 was maintained in Abcs25 and Abcs35 (Table 4). […] Briefly, Abcs35 was immobilized to 300 resonance units (RU) on a CM5 chip. Association of ROBO2 Ig1-Ig2-His (ROBO2) was measured over 5 minutes and dissociation was followed for a period of 10 minutes.

[4] = target: T3, Terbium (Tb) labeled-SNAP tagged ROBO2 expressed on HEK293 cells (Homo sapiens (Human), UniProt Q9HCK4 22-1378, terbium label on the SNAP tag); experiment: HTRF competition on ROBO2 expressing cells; blocked ligand SLIT2-N; 11 points up to 10^2 nM, another dilution series than that of Table 2
T3 construct: also called Tb-labeled ROBO2 cells; ROBO2 expressing cells; not shown: SNAP tag
T3 sequence: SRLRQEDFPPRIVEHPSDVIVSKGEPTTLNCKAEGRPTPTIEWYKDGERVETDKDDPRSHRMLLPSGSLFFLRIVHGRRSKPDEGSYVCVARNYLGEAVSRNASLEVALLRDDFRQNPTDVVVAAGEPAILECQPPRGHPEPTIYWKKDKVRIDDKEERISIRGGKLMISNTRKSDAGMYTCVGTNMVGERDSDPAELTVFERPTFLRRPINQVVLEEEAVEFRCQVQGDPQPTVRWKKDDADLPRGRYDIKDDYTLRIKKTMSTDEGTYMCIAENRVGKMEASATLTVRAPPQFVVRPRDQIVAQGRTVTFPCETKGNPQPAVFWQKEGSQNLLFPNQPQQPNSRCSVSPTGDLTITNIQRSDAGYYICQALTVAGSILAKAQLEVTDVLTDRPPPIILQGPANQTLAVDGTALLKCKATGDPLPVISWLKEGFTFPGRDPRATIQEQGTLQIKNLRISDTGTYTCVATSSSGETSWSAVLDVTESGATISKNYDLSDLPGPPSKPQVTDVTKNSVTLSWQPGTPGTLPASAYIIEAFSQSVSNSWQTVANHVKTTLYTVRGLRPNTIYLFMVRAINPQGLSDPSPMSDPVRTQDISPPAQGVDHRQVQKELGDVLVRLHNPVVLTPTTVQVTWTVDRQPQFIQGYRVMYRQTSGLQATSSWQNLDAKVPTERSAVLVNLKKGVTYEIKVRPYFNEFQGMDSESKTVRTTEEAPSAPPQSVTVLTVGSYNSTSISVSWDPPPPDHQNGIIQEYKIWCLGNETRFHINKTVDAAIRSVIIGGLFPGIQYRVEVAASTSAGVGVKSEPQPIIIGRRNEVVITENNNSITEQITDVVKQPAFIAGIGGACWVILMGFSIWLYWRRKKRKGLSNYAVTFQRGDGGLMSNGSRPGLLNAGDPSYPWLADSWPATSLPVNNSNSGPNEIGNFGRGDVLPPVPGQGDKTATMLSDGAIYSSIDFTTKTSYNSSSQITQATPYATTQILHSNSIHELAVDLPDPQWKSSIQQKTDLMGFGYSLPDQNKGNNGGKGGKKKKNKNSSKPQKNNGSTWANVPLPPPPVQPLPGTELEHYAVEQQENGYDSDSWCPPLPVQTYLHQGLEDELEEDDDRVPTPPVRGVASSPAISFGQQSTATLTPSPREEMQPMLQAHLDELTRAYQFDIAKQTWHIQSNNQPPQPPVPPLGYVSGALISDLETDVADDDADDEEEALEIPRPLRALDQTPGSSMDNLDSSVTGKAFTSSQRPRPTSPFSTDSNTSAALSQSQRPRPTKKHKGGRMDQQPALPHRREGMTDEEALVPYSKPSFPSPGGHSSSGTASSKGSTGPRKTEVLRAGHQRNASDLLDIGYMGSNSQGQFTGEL

- Kd (Human ROBO2 Ig1-Ig2-His [1]): 37 nM
- Fold Selectivity for RSK/KSR [2]: > 100 fold
B1: 93H2 (antibody, human IgG1, kappa, V domains shown)
VH: EVQLVQSGAEVKKPGASVKVSCKASGYTFTGYYMHWVRQAPGQGLEWMGWINPNSGATNFPQKFQGRVTMTRDTSITTAYMDLSRLRSDDTAVYYCARESGDDAFDIWGQGTMVTVSS
VL: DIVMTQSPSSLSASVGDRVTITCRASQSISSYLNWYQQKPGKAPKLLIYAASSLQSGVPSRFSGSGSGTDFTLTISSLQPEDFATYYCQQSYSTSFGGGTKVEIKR
notes: also called parental 93H2; 93H2 mAb

B2: Abcs35 (antibody, human IgG1, kappa)
heavy: EVQLVQSGAEVKKPGASVKVSCKASGYTFTGYYMHWVRQAPGQGLEWMGWINPKNGDTEFPQKFQGRVTMTRDTSITTAYMDLSRLRSDDTAVYYCARESGDDAFDIWGQGTMVTVSSASTKGPSVFPLAPSSKSTSGGTAALGCLVKDYFPEPVTVSWNSGALTSGVHTFPAVLQSSGLYSLSSVVTVPSSSLGTQTYICNVNHKPSNTKVDKKVEPKSCDKTHTCPPCPAPEAAGAPSVFLFPPKPKDTLMISRTPEVTCVVVDVSHEDPEVKFNWYVDGVEVHNAKTKPREEQYNSTYRVVSVLTVLHQDWLNGKEYKCKVSNKALPAPIEKTISKAKGQPREPQVYTLPPSREEMTKNQVSLTCLVKGFYPSDIAVEWESNGQPENNYKTTPPVLDSDGSFFLYSKLTVDKSRWQQGNVFSCSVMHEALHNHYTQKSLSLSPGK
light: DIVMTQSPSSLSASVGDRVTITCRASQSISSYLNWYQQKPGKAPKLLIYAASSLQSGVPSRFSGSGSGTDFTLTISSLQPEDFATYYCQQSVGLFFGGGTKVEIKRTVAAPSVFIFPPSDEQLKSGTASVVCLLNNFYPREAKVQWKVDNALQSGNSQESVTEQDSKDSTYSLSSTLTLSKADYEKHKVYACEVTHQGLSSPVTKSFNRGEC
notes: fully human IgG1; VH of Ab96 with VL of Ab123
- Kd (Human ROBO2 Ig1-Ig2-His [3]): 0.268 nM
- IC50 (read off the curve) [4]: ~0.05 nM
